In paper PMC7664366 (Redox Biology, 2020):

Molecular target: His-tagged human Rac1 recombinant protein (human, UniProt P63000 1-192)
Assay: MALDI MS, linear mode acquisition

Row | binding result | Binder
1 | binds | HRKKRRQRRRQFPGEYIPTVF [NipR2 (nitration inhibitory peptide for the Rho GTPases 2)]
2 | binds | HRKKRRQRRRQFPGEFIPTVF [NipR2F (phenylalanine-substituted control peptide)]
